For one experiment, the target named is T1, cOX40-mFc (cynomolgus).
T1 construct: Dimeric; also called cyno OX40-mFc
T1 chain: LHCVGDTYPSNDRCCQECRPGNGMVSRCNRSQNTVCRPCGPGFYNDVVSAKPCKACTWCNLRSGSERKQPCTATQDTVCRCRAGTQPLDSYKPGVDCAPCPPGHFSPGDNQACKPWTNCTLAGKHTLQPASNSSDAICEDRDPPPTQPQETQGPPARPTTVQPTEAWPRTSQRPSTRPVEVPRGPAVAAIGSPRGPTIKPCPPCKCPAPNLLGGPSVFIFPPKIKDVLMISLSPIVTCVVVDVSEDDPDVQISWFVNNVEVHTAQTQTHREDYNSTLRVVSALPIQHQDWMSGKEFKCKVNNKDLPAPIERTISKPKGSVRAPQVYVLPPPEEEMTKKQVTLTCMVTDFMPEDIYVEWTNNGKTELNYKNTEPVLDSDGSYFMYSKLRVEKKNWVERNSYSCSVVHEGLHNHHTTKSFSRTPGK
The experiment can be described thus: SPR, antibody captured via anti-human Fab, dimeric antigen flowed, 1:1 fit. Here is the method: (§1) For OX40 affinity determination a Biacore CM5 chip was coated with anti-human Fab using a Human Fab Capture Kit (GE Healthcare 28958325) according to manufacturer's conditions, to a surface density of approximately 8000 RU. […] The association time was 2 min and the dissociation time was 8 min. Running buffer was HBS-EP. Flow cells were regenerated by injecting glycine-HCl at pH 2.1 at a flow rate of 30 μl/min for 30 seconds.
(§2) The binding kinetics were fit with a 1:1 Langmuir model to generate binding association (kₐ) and dissociation (kd) rates. Equilibrium binding constants (KD) were calculated by dividing the dissociation rate by the association rate for each sample. Data analysis was performed with BiaEvaluation software version 3.2.
A general note: In SPR one partner is held on a chip, and binding of the other changes the refractive index at the surface.

In the next experiment the target is T2, hOX40-mFc (human).
T2 construct: Dimeric; also called human OX40-mFc
T2 chain: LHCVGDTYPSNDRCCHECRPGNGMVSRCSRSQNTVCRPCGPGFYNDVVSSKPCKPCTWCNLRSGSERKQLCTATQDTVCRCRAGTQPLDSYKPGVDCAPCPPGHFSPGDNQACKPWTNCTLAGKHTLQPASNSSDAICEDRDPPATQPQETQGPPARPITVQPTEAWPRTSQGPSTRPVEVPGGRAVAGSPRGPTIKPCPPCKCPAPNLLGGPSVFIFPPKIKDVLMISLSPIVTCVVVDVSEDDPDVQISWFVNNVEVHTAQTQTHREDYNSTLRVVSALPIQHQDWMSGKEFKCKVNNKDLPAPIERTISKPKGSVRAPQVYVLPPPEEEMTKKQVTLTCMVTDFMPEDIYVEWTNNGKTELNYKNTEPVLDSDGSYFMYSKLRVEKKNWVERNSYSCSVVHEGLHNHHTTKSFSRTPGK
The experiment is described as above. Here is the method: as §1, §2

In experiment [1] the target is T3, human OX40 expressed on DO11.10 cells (DO11.10-hOX40) (human, UniProt P43489 29-277).
T3 construct: Also used here for OX40 on primary human T cells in the functional rows; also called human OX40 receptor; OX40 on human T cells
T3 sequence: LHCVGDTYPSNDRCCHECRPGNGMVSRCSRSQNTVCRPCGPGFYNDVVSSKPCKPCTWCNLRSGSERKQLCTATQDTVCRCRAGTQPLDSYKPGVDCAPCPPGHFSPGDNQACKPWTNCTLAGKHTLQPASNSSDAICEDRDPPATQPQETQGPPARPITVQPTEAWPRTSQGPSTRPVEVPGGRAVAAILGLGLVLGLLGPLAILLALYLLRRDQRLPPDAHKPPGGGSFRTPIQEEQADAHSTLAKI
Put plainly: flow cytometry on DO11.10 cells expressing the target.

The target in experiment [2] is T4, cynomolgus CD137 expressed on DO11.10 cells (DO11.10-cCD137) (cynomolgus monkey, UniProt Q07011 24-255 (human entry)).
T4 chain: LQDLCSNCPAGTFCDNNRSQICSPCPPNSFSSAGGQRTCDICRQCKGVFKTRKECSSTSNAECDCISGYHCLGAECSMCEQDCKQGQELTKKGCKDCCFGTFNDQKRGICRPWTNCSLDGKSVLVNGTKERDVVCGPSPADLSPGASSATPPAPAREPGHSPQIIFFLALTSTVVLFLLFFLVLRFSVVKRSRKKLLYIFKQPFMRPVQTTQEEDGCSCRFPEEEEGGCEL
Described as above.

Experiment [3] addresses T5, cynomolgus OX40 expressed on DO11.10 cells (DO11.10-cOX40) (cynomolgus, UniProt P43489 29-277 (human entry)).
T5 chain: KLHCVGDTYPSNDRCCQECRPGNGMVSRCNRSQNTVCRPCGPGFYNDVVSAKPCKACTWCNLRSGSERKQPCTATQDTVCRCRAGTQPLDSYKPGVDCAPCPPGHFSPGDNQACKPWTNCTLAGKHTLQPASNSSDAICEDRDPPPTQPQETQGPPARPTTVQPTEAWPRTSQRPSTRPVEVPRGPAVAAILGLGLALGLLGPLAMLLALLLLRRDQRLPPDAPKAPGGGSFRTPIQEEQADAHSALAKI
The experiment is described as above.

Experiment [4] deals with T6, human CD137 expressed on DO11.10 cells (DO11.10-hCD137) (human, UniProt Q07011 24-255).
T6 construct: also called CD137 on human T cells
The description is as above.

The target in experiment [5] is T3, human OX40 expressed on DO11.10 cells …. Put plainly: cell-based or functional assay.
Experiment [6] addresses T6, human CD137 expressed on DO11.10 cells …. Put plainly: cell-based or functional assay.
Target sequence in this assay (Q07011 24-255): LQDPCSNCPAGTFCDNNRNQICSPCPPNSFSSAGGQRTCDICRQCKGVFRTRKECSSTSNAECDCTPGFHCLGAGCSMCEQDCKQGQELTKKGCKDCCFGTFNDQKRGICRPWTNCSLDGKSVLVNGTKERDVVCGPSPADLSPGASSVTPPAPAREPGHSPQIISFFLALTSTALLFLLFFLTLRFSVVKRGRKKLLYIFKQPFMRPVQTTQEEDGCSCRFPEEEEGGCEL

The Kd is the constant that tells how readily two partners part at equilibrium. Read a high Kd as weaker binding. Usually EC50 stands for the concentration needed to bring the measured effect to its halfway point. A lower EC50 goes with higher potency in that assay.

B1: FS20-22-49AA/FS30-10-16 (bispecific antibody, human IgG1, kappa, L234A L235A)
heavy: EVQLLESGGGLVQPGGSLRLSCAASGFTFSSYDMSWVRQAPGKGLEWVSDIDPTGSKTDYADSVKGRFTISRDNSKNTLYLQMNSLRAEDTAVYYCARDLLVYGFDYWGQGTLVTVSSASTKGPSVFPLAPSSKSTSGGTAALGCLVKDYFPEPVTVSWNSGALTSGVHTFPAVLQSSGLYSLSSVVTVPSSSLGTQTYICNVNHKPSNTKVDKKVEPKSCDKTHTCPPCPAPEAAGGPSVFLFPPKPKDTLMISRTPEVTCVVVDVSHEDPEVKFNWYVDGVEVHNAKTKPREEQYNSTYRVVSVLTVLHQDWLNGKEYKCKVSNKALPAPIEKTISKAKGQPREPQVYTLPPSRDEYWDQEVSLTCLVKGFYPSDIAVEWESNGDEQFAYKTTPPVLDSDGSFFLYSKLTVDQYRWNPADYFSCSVMHEALHNHYTQKSLSLSPG
light: EIVLTQSPGTLSLSPGERATLSCRASQSVSSSYLAWYQQKPGQAPRLLIYGASSRATGIPDRFSGSGSGTDFTLTISRLEPEDFAVYYCQQSYSYPVTFGQGTKVEIKRTVAAPSVFIFPPSDEQLKSGTASVVCLLNNFYPREAKVQWKVDNALQSGNSQESVTEQDSKDSTYSLSSTLTLSKADYEKHKVYACEVTHQGLSSPVTKSFNRGEC
notes: IgG1 with LALA; also called OX40/CD137 mAb^2; copies: 2 + 2
On to B1, for which the Kd with cOX40-mFc is 861 pM; with hOX40-mFc it was 214 pM. In addition, the EC50 stood at 157 pM in experiment [1], 80.3 pM in experiment [2], 380 pM in experiment [3] and 129 pM in experiment [4]. The “CD4+ T cell activation assay, hIL-2 release EC50, crosslinked” value in experiment [5] was determined as 83.3 pM. Moreover, in experiment [5], the “CD4+ T cell activation assay, hIL-2 release EC50, no crosslinker” value is 113 pM. Besides, the “CD8+ T cell activation assay, hIL-2 release EC50, crosslinked” value in experiment [6] worked out at 1980 pM. The “CD8+ T cell activation assay, hIL-2 release EC50, no crosslinker” value in experiment [6] is 118 pM.

Values taken from patent US20220048996A1 (F STAR BETA, published 2022).
